These sequences were tested on AncSZ (assay: phosphorylation enrichment, bacterial display (enrichment ratio); higher = better substrate or ligand; peptides without Tyr show the background).
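Note: 11-residue human phosphosite peptides and single-mutation variants displayed on the E. coli surface, counted by deep sequencing, each peptide's frequency after selection divided by its frequency in the unselected input library; frequency after pTyr selection over input frequency; kinase dosed for 20-30% of maximal phosphorylation in three min.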

Sequence	phosphorylation enrichment
PESIMYRKFTT [NTRK3_Y744]	3.03
YLGRDYLETLM [DUS3L_Y610]	0.937
GYSRHCEDGYP [CTNND1_Y217_Y217C]	0.869
KVWGIYDCQQP [CYP3A7_Y75]	1.56
HNLDYYKQTTN [FGFR3_Y648_K650Q]	0.979
LIHLHYIRRDF [BBS4_Y43_K46R_YF]	1.1
PLQKTYNFNML [SLC4A1_Y553_V557M_YF]	0.801
YGSGNYNDFGN [HNRNPA2B1_Y300]	1.03
DGMADYSDPSF [CDC5L_Y459_YF]	1.92
NELTYYCCKKD [CD59_Y87]	1.9
IRKAEYPFSSE [ATP2C1_Y452]	0.595
QMVGMYAFSYM [AVPR2_Y124_S126F]	2.25
MLEVPYVDRNS [F10_Y384]	0.847
LLQKTYNYNVL [SLC4A1_Y553_P548L]	1.26
RLSARYFQGDL [PDK3_Y337_Y334S]	0.563
CCNHPYLINGA [CHD7_Y1256]	0.651
SSFSGYIMMPN [LEF1_Y114_YF]	1.02
LSAPEYGPKLK [TBC1D14_Y46]	0.592
IQVNAYFSPIH [ADSL_Y432_D430N]	1.76
ETDSEYVKLAK [C7orf57_Y70]	0.934
CEHRGYLFLAI [TEK_Y897_YF]	0.951
QQLVAYYSKHA [SRC_Y232]	1.75
LADMNYVHCDL [EPHB2_Y742_R745C]	1.01
QDDYSYPSRQM [LDLR_Y847_G844D]	13.3
SEKISYVYMKR [SSX7_Y48_L43S]	0.912
TTSQLYDAVPI [PDPK1_Y9]	1.28
SLGSPYGQPPR [PDLIM4_Y137]	0.747
IENKLCGMSDP [RET_Y1062_Y1062C]	0.987
VNYGAYINNFK [GLB1_Y488_D491N]	0.677

The sequences below were run against EPHB1 (UniProt P54762) in the same assay as above.
Chain of EPHB1 (P54762 whole entry, looked up): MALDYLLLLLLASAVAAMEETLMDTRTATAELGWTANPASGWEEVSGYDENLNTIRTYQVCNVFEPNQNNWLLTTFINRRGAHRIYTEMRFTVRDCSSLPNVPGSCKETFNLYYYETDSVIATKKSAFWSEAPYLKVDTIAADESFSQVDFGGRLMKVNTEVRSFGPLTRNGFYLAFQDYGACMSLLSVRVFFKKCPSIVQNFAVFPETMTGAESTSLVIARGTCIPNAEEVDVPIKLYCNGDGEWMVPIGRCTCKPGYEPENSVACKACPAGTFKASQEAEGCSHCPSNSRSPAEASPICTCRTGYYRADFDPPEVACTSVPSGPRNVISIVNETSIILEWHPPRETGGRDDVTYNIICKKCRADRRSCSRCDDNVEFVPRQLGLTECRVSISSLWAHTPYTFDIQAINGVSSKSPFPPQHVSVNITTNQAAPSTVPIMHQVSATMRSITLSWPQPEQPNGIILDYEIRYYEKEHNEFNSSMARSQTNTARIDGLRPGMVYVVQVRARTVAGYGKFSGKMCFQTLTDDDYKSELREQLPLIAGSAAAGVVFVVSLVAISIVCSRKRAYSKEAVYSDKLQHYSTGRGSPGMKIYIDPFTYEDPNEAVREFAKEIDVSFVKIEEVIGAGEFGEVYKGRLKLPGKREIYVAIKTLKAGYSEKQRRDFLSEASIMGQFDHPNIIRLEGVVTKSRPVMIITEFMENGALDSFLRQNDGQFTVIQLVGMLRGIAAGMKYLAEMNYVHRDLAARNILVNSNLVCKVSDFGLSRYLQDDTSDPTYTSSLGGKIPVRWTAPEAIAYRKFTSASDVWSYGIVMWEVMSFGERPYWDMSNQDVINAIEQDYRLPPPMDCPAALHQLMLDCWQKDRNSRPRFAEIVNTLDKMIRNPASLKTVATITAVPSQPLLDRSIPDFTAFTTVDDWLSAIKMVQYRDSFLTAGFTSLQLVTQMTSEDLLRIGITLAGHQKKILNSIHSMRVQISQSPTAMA

Sequence	phosphorylation enrichment
PESIMYRKFTT [NTRK3_Y744]	0.534
YLGRDYLETLM [DUS3L_Y610]	0.617
GYSRHCEDGYP [CTNND1_Y217_Y217C]	0.521
KVWGIYDCQQP [CYP3A7_Y75]	6.6
HNLDYYKQTTN [FGFR3_Y648_K650Q]	0.786
LIHLHYIRRDF [BBS4_Y43_K46R_YF]	0.669
PLQKTYNFNML [SLC4A1_Y553_V557M_YF]	0.476
YGSGNYNDFGN [HNRNPA2B1_Y300]	3
DGMADYSDPSF [CDC5L_Y459_YF]	1.72
NELTYYCCKKD [CD59_Y87]	0.923
IRKAEYPFSSE [ATP2C1_Y452]	0.414
QMVGMYAFSYM [AVPR2_Y124_S126F]	2.45
MLEVPYVDRNS [F10_Y384]	0.499
LLQKTYNYNVL [SLC4A1_Y553_P548L]	0.745
RLSARYFQGDL [PDK3_Y337_Y334S]	0.393
CCNHPYLINGA [CHD7_Y1256]	0.352
SSFSGYIMMPN [LEF1_Y114_YF]	0.433
LSAPEYGPKLK [TBC1D14_Y46]	0.539
IQVNAYFSPIH [ADSL_Y432_D430N]	0.727
ETDSEYVKLAK [C7orf57_Y70]	0.441
CEHRGYLFLAI [TEK_Y897_YF]	0.502
QQLVAYYSKHA [SRC_Y232]	0.765
LADMNYVHCDL [EPHB2_Y742_R745C]	0.889
QDDYSYPSRQM [LDLR_Y847_G844D]	3.54
SEKISYVYMKR [SSX7_Y48_L43S]	0.553
TTSQLYDAVPI [PDPK1_Y9]	13.4
SLGSPYGQPPR [PDLIM4_Y137]	0.413
IENKLCGMSDP [RET_Y1062_Y1062C]	0.693
VNYGAYINNFK [GLB1_Y488_D491N]	0.743

Each sequence was assayed against EPHB2 (UniProt P29323) in the same assay as above.
Chain of EPHB2 (P29323 whole entry, looked up): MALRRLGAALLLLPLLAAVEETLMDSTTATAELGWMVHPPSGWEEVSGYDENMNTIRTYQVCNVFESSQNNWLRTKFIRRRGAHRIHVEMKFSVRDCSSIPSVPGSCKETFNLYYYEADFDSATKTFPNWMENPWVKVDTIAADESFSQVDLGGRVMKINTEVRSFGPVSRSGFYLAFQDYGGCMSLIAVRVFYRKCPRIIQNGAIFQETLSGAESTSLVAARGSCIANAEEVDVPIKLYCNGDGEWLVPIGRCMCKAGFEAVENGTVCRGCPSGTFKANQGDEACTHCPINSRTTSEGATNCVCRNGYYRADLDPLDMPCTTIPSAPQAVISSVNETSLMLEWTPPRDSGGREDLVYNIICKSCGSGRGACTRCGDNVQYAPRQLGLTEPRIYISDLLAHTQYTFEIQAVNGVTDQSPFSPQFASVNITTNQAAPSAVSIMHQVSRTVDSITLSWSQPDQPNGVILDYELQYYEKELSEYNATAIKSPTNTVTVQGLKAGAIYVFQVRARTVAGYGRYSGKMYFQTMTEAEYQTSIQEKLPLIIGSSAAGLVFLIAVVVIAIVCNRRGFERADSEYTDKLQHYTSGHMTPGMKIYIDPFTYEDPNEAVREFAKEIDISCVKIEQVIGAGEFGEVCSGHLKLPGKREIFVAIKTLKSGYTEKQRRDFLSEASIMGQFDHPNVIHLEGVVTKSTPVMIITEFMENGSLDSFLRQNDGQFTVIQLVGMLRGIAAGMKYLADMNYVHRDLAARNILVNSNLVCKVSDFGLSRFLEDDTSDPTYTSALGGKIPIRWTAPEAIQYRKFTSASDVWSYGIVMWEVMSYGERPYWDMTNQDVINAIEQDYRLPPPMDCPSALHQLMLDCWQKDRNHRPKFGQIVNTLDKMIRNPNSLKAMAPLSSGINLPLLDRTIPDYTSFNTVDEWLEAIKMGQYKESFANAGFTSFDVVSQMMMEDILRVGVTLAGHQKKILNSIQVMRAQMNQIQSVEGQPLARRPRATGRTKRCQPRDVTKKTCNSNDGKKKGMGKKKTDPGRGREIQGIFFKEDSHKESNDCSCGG

Sequence	phosphorylation enrichment
PESIMYRKFTT [NTRK3_Y744]	0.552
YLGRDYLETLM [DUS3L_Y610]	0.544
GYSRHCEDGYP [CTNND1_Y217_Y217C]	0.83
KVWGIYDCQQP [CYP3A7_Y75]	2.3
HNLDYYKQTTN [FGFR3_Y648_K650Q]	0.536
LIHLHYIRRDF [BBS4_Y43_K46R_YF]	0.707
PLQKTYNFNML [SLC4A1_Y553_V557M_YF]	0.587
YGSGNYNDFGN [HNRNPA2B1_Y300]	1.01
DGMADYSDPSF [CDC5L_Y459_YF]	3.21
NELTYYCCKKD [CD59_Y87]	1.17
IRKAEYPFSSE [ATP2C1_Y452]	0.341
QMVGMYAFSYM [AVPR2_Y124_S126F]	1.84
MLEVPYVDRNS [F10_Y384]	0.494
LLQKTYNYNVL [SLC4A1_Y553_P548L]	1.7
RLSARYFQGDL [PDK3_Y337_Y334S]	0.342
CCNHPYLINGA [CHD7_Y1256]	0.495
SSFSGYIMMPN [LEF1_Y114_YF]	1.47
LSAPEYGPKLK [TBC1D14_Y46]	0.425
IQVNAYFSPIH [ADSL_Y432_D430N]	0.536
ETDSEYVKLAK [C7orf57_Y70]	0.492
CEHRGYLFLAI [TEK_Y897_YF]	0.69
QQLVAYYSKHA [SRC_Y232]	0.916
LADMNYVHCDL [EPHB2_Y742_R745C]	0.578
QDDYSYPSRQM [LDLR_Y847_G844D]	7.79
SEKISYVYMKR [SSX7_Y48_L43S]	0.504
TTSQLYDAVPI [PDPK1_Y9]	17.1
SLGSPYGQPPR [PDLIM4_Y137]	0.448
IENKLCGMSDP [RET_Y1062_Y1062C]	0.652
VNYGAYINNFK [GLB1_Y488_D491N]	1.17

What follows are sequences tested against FGFR1 (UniProt P11362) in the same assay as above.
Chain of FGFR1 (P11362 whole entry, looked up): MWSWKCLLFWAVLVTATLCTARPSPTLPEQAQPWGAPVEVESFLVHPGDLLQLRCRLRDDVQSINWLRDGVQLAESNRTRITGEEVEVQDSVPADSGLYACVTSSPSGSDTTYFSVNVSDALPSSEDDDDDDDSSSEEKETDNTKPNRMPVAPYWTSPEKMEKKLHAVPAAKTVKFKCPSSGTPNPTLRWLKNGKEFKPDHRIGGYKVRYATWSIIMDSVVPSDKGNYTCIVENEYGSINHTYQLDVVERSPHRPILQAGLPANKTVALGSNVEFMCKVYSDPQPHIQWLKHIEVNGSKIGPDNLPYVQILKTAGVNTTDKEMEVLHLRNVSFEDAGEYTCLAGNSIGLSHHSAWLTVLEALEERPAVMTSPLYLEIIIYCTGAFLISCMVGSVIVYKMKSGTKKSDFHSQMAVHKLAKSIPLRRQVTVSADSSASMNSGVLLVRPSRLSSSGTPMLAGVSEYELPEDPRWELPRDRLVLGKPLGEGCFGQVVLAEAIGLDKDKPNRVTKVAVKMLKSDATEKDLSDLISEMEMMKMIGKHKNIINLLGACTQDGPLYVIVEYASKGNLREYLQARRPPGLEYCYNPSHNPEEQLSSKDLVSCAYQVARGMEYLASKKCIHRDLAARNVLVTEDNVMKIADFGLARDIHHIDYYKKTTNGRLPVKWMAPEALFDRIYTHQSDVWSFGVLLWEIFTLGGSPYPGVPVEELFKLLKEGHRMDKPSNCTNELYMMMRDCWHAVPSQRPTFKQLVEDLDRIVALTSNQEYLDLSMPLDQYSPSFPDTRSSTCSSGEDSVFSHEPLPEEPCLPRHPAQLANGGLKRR

Sequence	phosphorylation enrichment
PESIMYRKFTT [NTRK3_Y744]	0.384
YLGRDYLETLM [DUS3L_Y610]	2.74
GYSRHCEDGYP [CTNND1_Y217_Y217C]	0.46
KVWGIYDCQQP [CYP3A7_Y75]	0.687
HNLDYYKQTTN [FGFR3_Y648_K650Q]	3.5
LIHLHYIRRDF [BBS4_Y43_K46R_YF]	0.521
PLQKTYNFNML [SLC4A1_Y553_V557M_YF]	0.318
YGSGNYNDFGN [HNRNPA2B1_Y300]	0.719
DGMADYSDPSF [CDC5L_Y459_YF]	0.911
NELTYYCCKKD [CD59_Y87]	7.15
IRKAEYPFSSE [ATP2C1_Y452]	0.392
QMVGMYAFSYM [AVPR2_Y124_S126F]	0.804
MLEVPYVDRNS [F10_Y384]	0.411
LLQKTYNYNVL [SLC4A1_Y553_P548L]	1.23
RLSARYFQGDL [PDK3_Y337_Y334S]	0.436
CCNHPYLINGA [CHD7_Y1256]	0.443
SSFSGYIMMPN [LEF1_Y114_YF]	1.53
LSAPEYGPKLK [TBC1D14_Y46]	0.58
IQVNAYFSPIH [ADSL_Y432_D430N]	0.595
ETDSEYVKLAK [C7orf57_Y70]	0.377
CEHRGYLFLAI [TEK_Y897_YF]	0.545
QQLVAYYSKHA [SRC_Y232]	0.71
LADMNYVHCDL [EPHB2_Y742_R745C]	0.811
QDDYSYPSRQM [LDLR_Y847_G844D]	2.04
SEKISYVYMKR [SSX7_Y48_L43S]	0.6
TTSQLYDAVPI [PDPK1_Y9]	0.611
SLGSPYGQPPR [PDLIM4_Y137]	0.426
IENKLCGMSDP [RET_Y1062_Y1062C]	0.687
VNYGAYINNFK [GLB1_Y488_D491N]	0.453

From the supplement of paper PMC10065799, “High-throughput profiling of sequence recognition by tyrosine kinases and SH2 domains using bacterial peptide display” (eLife, 2023)
